Measurements: IntAct's records for PubMed 16293620

Biological target: pag_bacan pagA (UniProt P13423)

Row | Substance | effect of a mutation on the interaction
1 | Lethal factor (Bacillus anthracis) (from UniProt P15917) D139A | decreasing interaction
2 | Lethal factor (Bacillus anthracis) (from UniProt P15917) D169A | decreasing interaction
3 | Lethal factor (Bacillus anthracis) (from UniProt P15917) D169K | decreasing interaction
4 | Lethal factor (Bacillus anthracis) (from UniProt P15917) E168A | decreasing interaction
5 | Lethal factor (Bacillus anthracis) (from UniProt P15917) E168K | decreasing interaction
6 | Lethal factor (Bacillus anthracis) (from UniProt P15917) K176A | decreasing interaction
7 | Lethal factor (Bacillus anthracis) (from UniProt P15917) N173A | decreasing interaction
8 | Lethal factor (Bacillus anthracis) (from UniProt P15917) Y141K | decreasing interaction
